Target: “empty” DR4-LZ (DRA*01:01/DRB1*04:01 ectodomains with Jun/Fos leucine zippers, non-covalent heterodimer displayed on yeast through Aga2p) (human)

S862-888 (printed “5862-888”) (from UniProt P0DTC2 862-878) (peptide)
% competition: 75%
